Substitutions are numbered along the chain they refer to.
T1: Cynomolgus CHOK1SV/CD40
T1 construct: also called Cyno CD40 full-length; CD4001013
T1 receptor chain: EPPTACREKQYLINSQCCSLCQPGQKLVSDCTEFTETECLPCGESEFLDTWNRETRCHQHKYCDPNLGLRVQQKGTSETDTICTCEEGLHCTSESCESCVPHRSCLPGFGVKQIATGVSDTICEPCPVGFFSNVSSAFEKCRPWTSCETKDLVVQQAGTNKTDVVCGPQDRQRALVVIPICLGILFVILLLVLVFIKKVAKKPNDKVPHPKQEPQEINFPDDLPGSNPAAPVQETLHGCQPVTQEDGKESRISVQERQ

B1: CD4001152 (Fc fusion)
scFv: QIVMTQSPDSLALSLGERATMNCKSSQSLLFSVNQKNYLAWYQQKPGQAPRLLIYWASTRESGVPDRFSGSGSGTDFTLTISRLEPEDVATYYCQHYYSYPWTFGAGTKLEIKGGGGSGGGGSGGGGSGGGGSQVQLVQSGAEVKKPGASVKVSCKASGYTFSTSWIEWVRQAPGQGLEWIGEILPGSGSTNYAQKFQGRATFTADTSTSTAYMELSSLRSEDTAVYYCARGDDGSYVRWYFDVWGQGTTVTVSS
notes: Humanized 1D5 scFv variant, as told of in Fc-scFv format; not shown: the human Fc and any Fc-scFv linker; neither the Fc entry nor the scFv position (N- or C-terminal) is fixed for this construct
B2: CD4001163 (Fc fusion)
scFv: B1 scFv with L13V, M21I, L110V, I167M, I181M, A201V, F203M, A205R, A212V
notes: As m85; not shown: Fc (hinge-CH2-CH3) and any Fc-scFv linker of the tested fusion
B3: CD4001103 (Fc fusion)
scFv: B1 scFv with D9G, S10T, A12S, L15P, N22T, V89A, Q136K, V170I
notes: As m82; not shown: the human Fc (hinge-CH2-CH3) of the scFv-hFc format
B4: PC401122 (bispecific antibody)
chain: DIQMTQSPSSLSASVGDRVTITCRASQDINKFLSWYQQKPGKAPKLLIHYTSSLQSGVPSRFSGSGSGTDFTLTISSLQPEDFATYYCLQYDNLYTFGQGTKLEIKGGGGSGGGGSGGGGSGGGGSEVQLVESGGGLVQPGGSLRLSCAASGFTFSDYGMAWVRQAPGKGLEWVSFITSLAYIIYYADSVKGRFTISRDNAKNSLYLQMNSLRAEDTAVYYCARNYGSSPYYFDYWGQGTLVTVSSEPKSSDKTHTCPPCPAPPAAAPSVFLFPPKPKDTLMISRTPEVTCVVVDVSHEDPEVKFNWYVDGVEVHNAKTKPREEQYNSTYRVVSVLTVLHQDWLNGKEYKCAVSNKALPAPIEKTISKAKGQPREPQVYTLPPSRDELTKNQVSLTCLVKGFYPSDIAVEWESNGQPENNYKTTPPVLDSDGSFFLYSKLTVDKSRWQQGNVFSCSVMHEALHNHYTQKSLSLSPGGGGSPSDIQMTQSPSSVSASVGDRVTITCRASQSLLFSVNQKNYLAWYQQKPGKAPKLLIYWASSLQSGVPSRFSGSGSGTDFTLTISSLQPEDFATYYCQHYYSYPWTFGQGTKVEIKGGGGSGGGGSGGGGSGGGGSQVQLVQSGAEVKKPGSSVKVSCKASGYTFSTSWIEWIRQAPGQGLEWMGSILPGSGSTNYAQKFQGRVTITADTSTSTAYMELSSLRSEDTAVYYCARGDDGSYNRWYFDHWGQGTLVTVSS
notes: also called H-Val100aAsn
B5: PC401120 (bispecific antibody)
chain: B4 chain with Q588C, G659C, N720V
notes: also called L-Gln100Cys + H-Gly44Cys
B6: PC401119 (bispecific antibody)
chain: B4 chain with A676N, N720V
notes: also called H-Ala60Asn
B7: PC401128 (bispecific antibody)
scFv-Fc-scFv chain: B4 chain with L512T, N720V
notes: also called L-Leu30Thr
B8: PC401124 (bispecific antibody)
chain: B4 chain with A676N
notes: also called H-Ala60Asn + H-Val100aAsn
B9: PC401003 (bispecific antibody)
chain: B4 chain with N720V
notes: also called Parent; DDG (Original)
B10: PC401144 (bispecific antibody)
chain: B4 chain with L512T, Q588C, G659C, A676N
B11: PC401145 (bispecific antibody)
chain: B4 chain with Q588C, G659C, A676N
B12: CD4001090 (Fc fusion)
chain: EVVMTQSPDFQSVTPKEKVTITCRSSQSLVHYNGYTYLHWYQQKPDQSPKLLIYKVSNRFSGVPSRFSGSGSGTDFTLTINSLEAEDAAAYFCSQTTHVPLTFGPGTKVDIKGGGGSGGGGSGGGGSGGGGSEVQLVESGGGVVQPGRSLRLSCAASGFTFSSYAMSWVRQAPGKGLEWVASISSAGTYIYYADSVKGRFTISRDNSKNTLYLQMNGLRAEDTAVYYCARHGNGYDPLWYFDVWGQGTLVTVSS
notes: As m65; not shown: wildtype IgG1 Fc region
B13: CD4001099 (Fc fusion)
chain: B12 chain with V143L, V144E, R148G, G217S, L249T
notes: as for B12
B14: CD4001088 (Fc fusion)
chain: B12 chain with V143L, K197Q, S207G, T210S, G217S, V225L, L249M
notes: as for B12

molecular target: T2, human CD40 full-length (human, UniProt P25942 21-277); assay: on-cell binding
T2 construct: Also used for CD40 of Daudi cells, of CD40-expressing HEK293 cells and of the BPS CD40/NFkB HEK293 reporter cells where the row says so; also called CD4001012; CHOK1SV/CD40

| binding result | Binder |
| --- | --- |
| no binding | B1 |
| no binding | B2 |

molecular target: T2, human CD40 full-length; assay: flow cytometry, CHOK1SV/human CD40 cells

| binding result | Binder |
| --- | --- |
| binds | B3 |

molecular target: T2, human CD40 full-length; assay: flow cytometry, CHOK1SV/human CD40 cells; remark: another data set of the same source

| binding result | Binder |
| --- | --- |
| binds | B4 |
| binds | B5 |
| binds | B6 |
| binds | B7 |
| binds | B8 |

molecular target: T3, Human PD-L1 full-length (human, UniProt Q9NZQ7 19-290); assay: flow cytometry, CHOK1SV/human PD-L1 cells
T3 construct: also called PDL01021; CHOK1SV/huPDL1
T3 sequence (Q9NZQ7 19-290): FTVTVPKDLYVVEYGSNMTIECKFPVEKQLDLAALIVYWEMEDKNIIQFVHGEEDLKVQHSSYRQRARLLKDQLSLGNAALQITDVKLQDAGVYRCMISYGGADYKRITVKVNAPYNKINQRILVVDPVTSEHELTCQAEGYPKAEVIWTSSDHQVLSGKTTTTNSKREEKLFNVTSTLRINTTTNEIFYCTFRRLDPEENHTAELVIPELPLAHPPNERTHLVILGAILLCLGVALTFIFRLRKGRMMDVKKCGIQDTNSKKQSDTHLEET

| EC50 (read off the curve) [nM] | Binder |
| --- | --- |
| ~3 | B9 |
| ~3 | B4 |
| ~3 | B5 |
| ~5 | B6 |

molecular target: T3, Human PD-L1 full-length; assay: flow cytometry, CHOK1SV/human PD-L1 cells; remark: another data set of the same source

| EC50 (read off the curve) [nM] | binding result | Binder |
| --- | --- | --- |
| ~3 | – | B9 |
| – | binds | B7 |
| – | binds | B10 |
| – | binds | B11 |
| – | binds | B8 |

Molecular target: T1, Cynomolgus CHOK1SV/CD40
Assay: flow cytometry, CHOK1SV/cynomolgus CD40 cells

| binding result | Binder |
| --- | --- |
| binds | B9 |
| binds | B4 |
| binds | B5 |
| binds | B6 |
| binds | B7 |
| binds | B8 |

molecular target: T2, human CD40 full-length; assay: flow cytometry, Daudi cells (endogenous CD40)

| binding result | Binder |
| --- | --- |
| binds | B10 |
| binds | B11 |

Molecular target: T1, Cynomolgus CHOK1SV/CD40
Assay: flow cytometry, CHOK1SV/cynomolgus CD40 cells
Remark: another data set of the same source

| binding result | Binder |
| --- | --- |
| binds | B10 |
| binds | B11 |

molecular target: T4, human neonatal Fc receptor (FcRn, complexed with beta-2-macroglobulin) (human, UniProt P55899 24-297; P61769 21-119); assay: SPR, FcRn/b2m immobilized, bispecific injected, pH 6.0, two-state reaction fit
T4 construct: also called Human FcRn/b2m

| Kd [nM] | Binder |
| --- | --- |
| 121 | B9 |
| 134 | B4 |
| 146 | B5 |
| 122 | B6 |
| 144 | B8 |

molecular target: T5, human CD40 ECD- HAC tag (human); assay: SPR (Biacore T200), bispecific captured on the chip, monovalent CD40 ECD injected
T5 construct: also called CD4001006; recombinant monomeric human CD40 ectodomain (ECD)

| Kd [nM] | koff [s⁻¹] | kon [M⁻¹ s⁻¹] | Binder |
| --- | --- | --- | --- |
| 69 | 0.0006 | 8700 | B4 |
| 74 | 0.00054 | 7200 | B5 |
| 57 | 0.0004 | 7000 | B6 |
| 81 | 0.00059 | 7300 | B10 |
| 81 | 0.00061 | 7600 | B11 |

molecular target: T2, human CD40 full-length; assay: binding to cells expressing full length human- or cyno-CD40, unpurified small-scale material

| binding result | Binder |
| --- | --- |
| binds | B12 |
| binds | B13 |
| binds | B14 |
